Here are results for one substance from patent US5763593.

The test deals with TATA-binding protein (Saccharomyces cerevisiae (strain ATCC 204508 / S288c) (Baker's yeast)) (UniProt P13393).

“purified yeast NC2 (DRAP1/Dr1) with epitope-tagged (FLAG) NC2α/DRAP1 subunit” returned an amount required for 50% inhibition of in vitro transcription by RNA polymerase II holoenzyme of 0.5 pmol.
